Test results reported in patent US20260116980A1.

Molecular target: B7H3 on H358 tumor cells (UniProt Q5ZPR3)
Experiment: FACS on H358 cells, 1 h on ice, fluorescence-labelled anti-human Fc

Sequence of B7H3 on H358 tumor cells (Q5ZPR3 29-534): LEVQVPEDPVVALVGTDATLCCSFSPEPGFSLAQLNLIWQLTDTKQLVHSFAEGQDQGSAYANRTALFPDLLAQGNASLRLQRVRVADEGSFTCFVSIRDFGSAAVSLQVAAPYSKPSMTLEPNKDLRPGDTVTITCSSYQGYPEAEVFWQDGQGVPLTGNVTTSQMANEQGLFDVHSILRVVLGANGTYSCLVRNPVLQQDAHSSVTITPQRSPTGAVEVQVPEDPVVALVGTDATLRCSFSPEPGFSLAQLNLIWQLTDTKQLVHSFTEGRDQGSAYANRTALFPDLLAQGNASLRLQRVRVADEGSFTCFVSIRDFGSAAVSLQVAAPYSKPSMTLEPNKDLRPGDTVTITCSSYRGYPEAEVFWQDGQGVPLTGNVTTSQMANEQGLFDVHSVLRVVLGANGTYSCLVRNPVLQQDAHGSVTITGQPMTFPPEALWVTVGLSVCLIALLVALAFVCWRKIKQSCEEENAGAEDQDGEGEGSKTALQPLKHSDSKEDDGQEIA

Substance “MABX-9001a (a humanized anti-B7H3 IgG1 monoclonal antibody used for DS-7300a)” has an EC50 (read off the curve) of 1 nM.
